Measured values: publication PMC5740215, “Functional characterization of a novel somatic oncogenic mutation of PIK3CB” (Signal Transduction and Targeted Therapy, 2017)

Substrate: Nc1ncnc2c1ncn2[C@@H]1O[C@H](COP(=O)(O)OP(=O)(O)OP(=O)(O)O)[C@@H](O)[C@H]1O
Assay: Km [ATP] by ADP-Glo lipid kinase assay with PIP2:PS substrate
Format: biochemical, Homo sapiens
Settings: MgCl2

Protein	Km [µM]	Vmax [µmol/min/mg]
p110β (Homo sapiens) (protein, GST-His6-p110β+myc-p85α; with p85α (PIK3R1)) MCFSFIMPPAMADILDIWAVDSQIASDGSIPVDFLLPTGIYIQLEVPREATISYIKQMLWKQVHNYPMFNLLMDIDSYMFACVNQTAVYEELEDETRRLCDVRPFLPVLKLVTRSCDPGEKLDSKIGVLIGKGLHEFDSLKDPEVNEFRRKMRKFSEEKILSLVGLSWMDWLKQTYPPEHEPSIPENLEDKLYGGKLIVAVHFENCQDVFSFQVSPNMNPIKVNELAIQKRLTIHGKEDEVSPYDYVLQVSGRVEYVFGDHPLIQFQYIRNCVMNRALPHFILVECCKIKKMYEQEMIAIEAAINRNSSNLPLPLPPKKTRIISHVWENNNPFQIVLVKGNKLNTEETVKVHVRAGLFHGTELLCKTIVSSEVSGKNDHIWNEPLEFDINICDLPRMARLCFAVYAVLDKVKTKKSTKTINPSKYQTIRKAGKVHYPVAWVNTMVFDFKGQLRTGDIILHSWSSFPDELEEMLNPMGTVQTNPYTENATALHVKFPENKKQPYYYPPFDKIIEKAAEIASSDSANVSSRGGKKFLPVLKEILDRDPLSQLCENEMDLIWTLRQDCREIFPQSLPKLLLSIKWNKLEDVAQLQALLQIWPKLPPREALELLDFNYPDQYVREYAVGCLRQMSDEELSQYLLQLVQVLKYEPFLDCALSRFLLERALGNRRIGQFLFWHLRSEVHIPAVSVQFGVILEAYCRGSVGHMKVLSKQVEALNKLKTLNSLIKLNAVKLNRAKGKEAMHTCLKQSAYREALSDLQSPLNPCVILSELYVEKCKYMDSKMKPLWLVYNNKVFGEDSVGVIFKNGDDLRQDMLTLQMLRLMDLLWKEAGLDLRMLPYGCLATGDRSGLIEVVSTSETIADIQLNSSNVAAAAAFNKDALLNWLKEYNSGDDLDRAIEEFTLSCAGYCVASYVLGIGDRHSDNIMVKKTGQLFHIDFGHILGNFKSKFGIKRERVPFILTYDFIHVIQQGKTGNTEKFGRFRQCCEDAYLILRRHGNLFITLFALMLTAGLPELTSVKDIQYLKDSLALGKSEEEALKQFKQKFDEALRESWTTKVNWMAHTVRKDYRS	507.5 ± 66.3	1.13
p110β^E1051K (Homo sapiens; E1051K) (protein, GST-His6-p110β+myc-p85α; with p85α (PIK3R1)) MCFSFIMPPAMADILDIWAVDSQIASDGSIPVDFLLPTGIYIQLEVPREATISYIKQMLWKQVHNYPMFNLLMDIDSYMFACVNQTAVYEELEDETRRLCDVRPFLPVLKLVTRSCDPGEKLDSKIGVLIGKGLHEFDSLKDPEVNEFRRKMRKFSEEKILSLVGLSWMDWLKQTYPPEHEPSIPENLEDKLYGGKLIVAVHFENCQDVFSFQVSPNMNPIKVNELAIQKRLTIHGKEDEVSPYDYVLQVSGRVEYVFGDHPLIQFQYIRNCVMNRALPHFILVECCKIKKMYEQEMIAIEAAINRNSSNLPLPLPPKKTRIISHVWENNNPFQIVLVKGNKLNTEETVKVHVRAGLFHGTELLCKTIVSSEVSGKNDHIWNEPLEFDINICDLPRMARLCFAVYAVLDKVKTKKSTKTINPSKYQTIRKAGKVHYPVAWVNTMVFDFKGQLRTGDIILHSWSSFPDELEEMLNPMGTVQTNPYTENATALHVKFPENKKQPYYYPPFDKIIEKAAEIASSDSANVSSRGGKKFLPVLKEILDRDPLSQLCENEMDLIWTLRQDCREIFPQSLPKLLLSIKWNKLEDVAQLQALLQIWPKLPPREALELLDFNYPDQYVREYAVGCLRQMSDEELSQYLLQLVQVLKYEPFLDCALSRFLLERALGNRRIGQFLFWHLRSEVHIPAVSVQFGVILEAYCRGSVGHMKVLSKQVEALNKLKTLNSLIKLNAVKLNRAKGKEAMHTCLKQSAYREALSDLQSPLNPCVILSELYVEKCKYMDSKMKPLWLVYNNKVFGEDSVGVIFKNGDDLRQDMLTLQMLRLMDLLWKEAGLDLRMLPYGCLATGDRSGLIEVVSTSETIADIQLNSSNVAAAAAFNKDALLNWLKEYNSGDDLDRAIEEFTLSCAGYCVASYVLGIGDRHSDNIMVKKTGQLFHIDFGHILGNFKSKFGIKRERVPFILTYDFIHVIQQGKTGNTEKFGRFRQCCEDAYLILRRHGNLFITLFALMLTAGLPELTSVKDIQYLKDSLALGKSEEEALKQFKQKFDEALRKSWTTKVNWMAHTVRKDYRS	314.3 ± 36.8	1.4
